Laboratory results taken from the Human Domainome abundance scans (Beltran et al. 2025).

B1: POU domain, class 5, transcription factor 1, residues 134 to 212; numbered along this chain, Q01860 (parent)
chain: EESQDIKALQKELEQFAKLLKQKRITLGYTQADVGLTLGVLFGKVFSQTTICRFEALQLSFKNMCKLRPLLQKWVEEAD

Variants of: B1
Assay: abundance fitness (aPCA) (normalised: wild type 0, dead -1); higher = more abundant; growth selection in yeast, the domain comes from the species named
Settings: Homo sapiens

Abundance fitness, by site and new letter:
F42: A -0.014; I -0.49; S -0.055; C 0.092; Y -0.028; T 0.166; E -0.493; M -0.607; V 0.127; Q -0.875; K -0.262; N -0.191; L -0.469; G -0.091; R -0.627; P -0.654; D -0.481; W -0.165
R53: D -0.027; G -0.421; E -0.078; S -0.467; H 0.118; Q -0.074; T -0.356; A -0.06; P -0.287; K 0.029
L59: V -0.7; A -0.81; P -0.312; E 0.101; G -0.432; R -0.561; T -0.533; S -0.453; C 0.009; M -0.054; N 0.124
L36: S 0.105; Q 0.283; W 0.249; N 0.144; M 0.168; G -0.306; K 0.087; I 0.311; Y -0.037; H 0.362; V 0.002; P -0.6; T 0.293; R 0.235
Q48: E 0.484; G 0.24; R 0.126; A 0.162; D 0.164; P 0.097; M 0.348; S 0.208; K 0.079; F -0.343; L -0.435
L41: T -0.04; G -0.934; A -0.695; R -0.345; Q 0.048; E -0.224; V -0.329; W 0.046; D -0.244
S47: K -0.597; A -0.379; E -0.228; F -0.094; R -0.469; Q -0.196; T -0.169; L -0.756; D -0.323
Q58: G -0.573; W -0.179; D -0.03; A -0.5; K -0.035; S -0.307; R -0.31; L -0.43; T -0.097; E 0.126
F61: N -0.275; Q -0.111; C -0.441; G -0.466; T 0.063; A -0.147; E -0.8; W -0.035; Y -0.09; R -0.422; K -0.206; I 0.132; M 0.04; P 0.202; L 0.036; V 0.031
E55: V -1.04; M -0.907; S -0.418; R -0.607; K -0.495; I -0.365; Q -0.498; G -0.66; W -0.555
L57: D -0.509; E -0.694; N 0.261; M 0.152; H 0.298; Q 0.106; G 0.094; S -0.306; V -0.066; R -0.234; Y 0.129; A -0.58; P -0.005; C 0.035; W -0.355; T -0.344; K -0.45
I51: T -0.338; G -0.25; V -0.48; R -0.575; K -0.067; A -0.916
V40: D -0.621; G -0.01; I 0.038; E 0.1; S -0.026; M -0.087; C 0.354; H 0.12; W -0.151; K 0.198; L -0.045; Y -0.237; N 0.028
L38: A -0.275; V -0.52; Q -0.482; G -0.832; K -0.603; H -0.313; R -0.511; W -0.214; E -0.701; T -0.035; M 0.185; P -0.662; S -0.37; C -0.029
V45: A 0.127; Q 0.044; E 0.16; W -0.143; P 0.12; M -0.122; K 0.085; H 0.013; C -0.101; G -0.153; N 0.001; T -0.005; L -0.338; D -0.28; R 0.036; S 0.012; F -0.15
G39: T -0.613; P -0.325; H -0.441; K -0.187; E -0.469; D -0.852; V -0.85; A -0.534; W -0.712; R -0.318; S -0.006
F54: K -0.662; P -0.719; C -0.5; R -0.621; A -1.13; S -0.562; T 0.078; V -0.625; M -0.535; W -0.797; E -0.828; G -0.695; Q -0.891
K62: L -0.579; Q 0.046; D 0.201; G -0.146; E 0.038; C -0.489; R -0.143; P -0.08; H -0.19; I -0.238; M 0.192
T37: A 0.345; H 0.162; R 0.339; E 0.681; Q 0.394; K 0.082; I -0.093; F 0.319; Y -0.193; P -0.621; C -0.733; D 0.412; L -0.283; S 0.153; M 0.116; G 0.296
T49: D 0.044; Q 0.206; S -0.072; G -0.243; C -0.524; N -0.111; A 0.02; K 0.235; V -0.272; E 0.186; W -0.259; F -0.432; L -0.418; H 0.109; P -0.281
A56: D 0.18; H -0.245; C -0.098; W -0.812; T -0.243; S -0.002; R -0.492; V -0.464; P -0.345; G -0.06; K -0.197; E 0.067; Q 0.059; N 0.067; M 0.159
G43: S -0.651; V -0.585; N -0.341; R -0.613; C -0.485; A -0.282; K -0.516
K44: Y -0.489; N -0.26; V -0.441; P -0.3; Q 0.018; M -0.374; D -0.262; C -0.381; S -0.805; H -0.181; E 0.016; G -0.382
S60: D 0.197; I -0.284; R -0.556; L -0.265; G -0.268; E -0.173; C -0.449; V -0.843; W -0.381; A -0.273; P 0.084; Q -0.415
T50: E 0.231; A -0.316; L -0.626; H 0.017; R -0.756; M -0.27; C -0.298; V 0.015; S -0.542; W -0.43; G -0.601; Q -0.411
C52: M 0.451; D 0.203; F -0.343; R 0.47; E 0.086; K 0.356; L -0.07; N 0.175; A 0.424; S 0.341; Y -0.604
F46: V 0.411; T 0.025; P 0.029; A -0.147; K -0.17; R -0.429; M 0.023; E -0.293; L 0.211; I 0.107; D 0.136; S -0.553; C 0.311; G -0.714; W -0.398
